# Laboratory results reported in article doi:10.1101/2020.09.04.283184 (bioRxiv, 2020).
# Target: the molecule itself
# Assay: PORT-HS-AFM
protein,measurement,value
"Chlamydomonas reinhardtii SAS-6[NL] homodimer (domain or fragment, UniProt A9CQL4 1-503, looked up) MPLLLDDGDPKAQTGFDLSTATTLFWRPVPVHVKQQDREDVLEELTFRILTGVAKQNHNLRILRIHISSDSDLFFLHTLEVSEEDFQSLKNDQGILVDFASFPGKIISLLEKCILAQPGDSPRFQAVLTIRGGESVFKIVEINDFKQLPHITLAFRPGNDSVVKQFLAFRLSEVKGTCHDLSDDLSRTRDDRDSMVAQLAQCRQQLAQLREQYDKHLLEVQAQAKTQQASAHEERIREKSQLKDQFEKERGEMEGRYRDQIAALNTRLGELDTENRKLREVKYELDTKVSELSHKLGSSEGSNRSLEEETARLRSLNQQLSSSKHELEIQLNEAKAKVLALDEKAQSQGDVIEQQRGRLRDMEAALRQTEQRCADLRDTLASAEGRAKEAQAEVLKGNQAIEKLTNDLRLAKEKTKRKAAIILRQEEELQEREQSLANATRDVGVLGQQAESLRKDVASLHSENDSLRSKLEDSKQQLQSNEQMIRWLNQQVTEAQLHASGAT",stoichiometry N,7 to 10 homodimers
